Laboratory results as given in IntAct's records for PubMed 19525971.

B1: Charged multivesicular body protein 3 (Homo sapiens), Q9Y3E7-1 (parent)
chain: MGLFGKTQEKPPKELVNEWSLKIRKEMRVVDRQIRDIQREEEKVKRSVKDAAKKGQKDVCIVLAKEMIRSRKAVSKLYASKAHMNSVLMGMKNQLAVLRVAGSLQKSTEVMKAMQSLVKIPEIQATMRELSKEMMKAGIIEEMLEDTFESMDDQEEMEEEAEMEIDRILFEITAGALGKAPSKVTDALPEPEPPGAMAASEDEEEEEEALEAMQSRLATLRS
partner: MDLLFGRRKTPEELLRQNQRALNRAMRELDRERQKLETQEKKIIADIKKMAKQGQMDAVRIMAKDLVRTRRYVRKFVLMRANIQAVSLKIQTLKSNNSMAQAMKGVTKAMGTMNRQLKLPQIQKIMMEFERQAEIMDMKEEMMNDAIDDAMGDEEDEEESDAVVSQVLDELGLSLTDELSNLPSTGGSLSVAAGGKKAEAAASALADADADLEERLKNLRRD

Variants of: B1
Settings: with chm2a_human CHMP2A

effect of a mutation on the interaction	Variant
disrupting interaction	MGLFGKTQEKPPKELVNEWSLKIRKEMRVVDRQIRDIQREEEKVKRSVKDAAKKGQKDDCIDLAKEMIRSRKAVSKLYASKAHMNSVLMGMKNQLAVLRVAGSLQKSTEVMKAMQSLVKIPEIQATMRELSKEMMKAGIIEEMLEDTFESMDDQEEMEEEAEMEIDRDDFEITAGALGKAPSKVTDALPEPEPPGAMAASEDEEEEEEALEAMQSRLATLRS [V59D;V62D;I168D;L169D]
disrupting interaction	MGLFGKTQEKPPKELVNEWSLKIRKEMRVVDRQIRDIQREEEKVKRSVKDAAKKGQKDDCIDLAKEMIRSRKAVSKLYASKAHMNSVLMGMKNQLAVLRVAGSLQKSTEVMKAMQSLVKIPEIQATMRELSKEMMKAGIIEEMLEDTFESMDDQEEMEEEAEMEIDRILFEITAGALGKAPSKVTDALPEPEPPGAMAASEDEEEEEEALEAMQSRLATLRS [V59D;V62D]
